Measurements: publication PMC10950897 (Nature Communications, 2024)
Values belong to the binder of their own block, whether it stands above or below them. Where no end group is shown, it is not given here. The star is where a group is joined. Biotin = O=C1N[C@H]2[C@H](CS[C@H]2CCCCC(=O)*)N1

How the values were obtained:
His6-p97 WT [1] = target: T1, His6-p97 WT (human, UniProt P55072 1-806); experiment: pull-down; biotinylated VRM, VIM or VBM peptides immobilized on StrepTactin agarose, incubated with purified WT or mutant His6-p97, washed extensively in RIPA buffer, immunoblot; settings: both partners purified
T1 construct: p97/VCP, human; from plasmid pET15b-His6-p97; hexamer by mass photometry (535 kDa); also called recombinant p97; purified p97; source: E. coli BL21(DE3), purified (Ni-NTA, Superose 6)

His6-p97 WT [2] = target: T1, His6-p97 WT; experiment: SPR; Biacore T200, 25 C, His6-p97 amine-coupled to CM5 chip (~400 RU), Strep-HA-VCF1 full-length as analyte up to 100 nM, PBS-P with 0.5 mM TCEP, 1:1 model; settings: both partners purified

T1 sequence (P55072 whole entry): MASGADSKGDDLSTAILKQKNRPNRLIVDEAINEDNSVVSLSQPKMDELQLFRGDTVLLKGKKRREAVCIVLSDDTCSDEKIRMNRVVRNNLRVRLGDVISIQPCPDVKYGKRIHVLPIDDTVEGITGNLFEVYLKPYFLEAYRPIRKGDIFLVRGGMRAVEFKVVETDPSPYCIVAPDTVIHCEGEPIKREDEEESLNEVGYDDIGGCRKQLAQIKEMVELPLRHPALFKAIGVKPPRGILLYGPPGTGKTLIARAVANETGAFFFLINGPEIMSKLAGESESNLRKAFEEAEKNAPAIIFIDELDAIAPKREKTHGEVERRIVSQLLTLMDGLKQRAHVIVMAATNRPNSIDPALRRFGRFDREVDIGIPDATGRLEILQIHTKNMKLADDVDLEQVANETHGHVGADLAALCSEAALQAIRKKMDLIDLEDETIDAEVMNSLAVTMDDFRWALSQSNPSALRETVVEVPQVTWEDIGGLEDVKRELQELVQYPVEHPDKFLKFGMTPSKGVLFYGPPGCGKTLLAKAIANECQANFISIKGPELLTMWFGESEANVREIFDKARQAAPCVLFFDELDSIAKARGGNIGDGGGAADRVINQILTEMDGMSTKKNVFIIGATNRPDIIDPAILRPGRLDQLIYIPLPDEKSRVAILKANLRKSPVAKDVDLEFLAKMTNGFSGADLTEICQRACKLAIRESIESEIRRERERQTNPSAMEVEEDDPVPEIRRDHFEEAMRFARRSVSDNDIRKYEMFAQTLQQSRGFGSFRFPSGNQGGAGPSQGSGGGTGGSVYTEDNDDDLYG

binding result (His6-p97 WT [1]): binds
B1: VBM (ATXN3, aa275-295) peptide (peptide)
peptide: Biotin-NLTSEELRKRREAYFEKQQQK
notes: ATXN3 (ataxin-3), human, VBM motif, aa275-295; also called peptide spanning the VBM in ATXN3; source: synthetic peptide, bought: GenScript

binding result (His6-p97 WT [1]): binds
B2: VIM (SVIP, aa14-39) peptide (peptide)
peptide: Biotin-PTPDLEEKRAKLAEAAERRQKEAAS
notes: SVIP, human, VIM motif; also called peptide spanning the VIM in SVIP; source: synthetic peptide, bought: GenScript

Kd (His6-p97 WT [2]): ~0.01 µM
B3: Strep-HA-VCF1 WT (natural protein)
chain: not shown
notes: VCF1 (FAM104A), human, isoform 1, 186 amino acids; cDNA inserted into pcDNA5/FRT/TO/Strep-HA; also called recombinant VCF1; full-length VCF1; source: HEK293-EBNA1-6E, transfected, purified (Strep-Tactin, Superose 6)
